According to US20250154253A1 (ROCKEFELLER UNIVERSITY, published 2025):

Experiments:
[1] = target: T1, recombinant mouse CD47 (SinoBiological 57231-MNAH) (mouse, UniProt Q61735 19-140, limits assumed); experiment: ELISA on plate-coated recombinant mouse CD47 (1 ug/mL), HRP-conjugated anti-IgG, absorbance 450 nm
T1 construct: Bought protein coated on ELISA plates at 1 ug/mL; also called mCD47
T1 sequence (looked up): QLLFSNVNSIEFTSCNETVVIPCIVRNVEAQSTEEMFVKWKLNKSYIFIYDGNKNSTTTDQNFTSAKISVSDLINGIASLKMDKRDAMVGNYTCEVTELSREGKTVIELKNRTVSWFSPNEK

FcγRI [2] = target: T2, FcγRI (mouse, UniProt P26151); experiment: no assay stated; drawn summary table of graded binding (- to ++++), for which the text cites Nimmerjahn et al. 2005
T2 construct: also called mouse FcγRI; mFcγRI
T2 sequence (receptor, looked up): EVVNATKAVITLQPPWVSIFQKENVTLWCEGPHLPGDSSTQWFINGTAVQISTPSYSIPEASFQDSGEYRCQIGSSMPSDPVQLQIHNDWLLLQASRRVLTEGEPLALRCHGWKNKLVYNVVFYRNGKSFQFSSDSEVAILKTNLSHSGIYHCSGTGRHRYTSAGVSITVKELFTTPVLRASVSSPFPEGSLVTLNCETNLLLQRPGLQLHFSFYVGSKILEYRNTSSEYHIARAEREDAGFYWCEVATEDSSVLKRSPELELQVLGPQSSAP

FcγRIII = target: T3, FcγRIII (mouse, UniProt P08508); experiment: as above
T3 construct: also called mouse FcγRIII; mFcγRIII
T3 sequence (receptor, looked up): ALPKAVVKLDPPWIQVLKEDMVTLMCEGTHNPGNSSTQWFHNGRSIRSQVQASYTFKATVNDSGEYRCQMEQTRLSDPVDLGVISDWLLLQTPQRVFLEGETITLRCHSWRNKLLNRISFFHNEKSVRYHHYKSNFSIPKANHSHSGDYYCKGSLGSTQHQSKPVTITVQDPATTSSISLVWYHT

FcγRIIb [3] = target: T4, FcγRIIb (mouse, UniProt P08101); experiment: as above
T4 construct: also called mouse FcγRIIb; mFcγRIIB
T4 sequence (receptor, looked up): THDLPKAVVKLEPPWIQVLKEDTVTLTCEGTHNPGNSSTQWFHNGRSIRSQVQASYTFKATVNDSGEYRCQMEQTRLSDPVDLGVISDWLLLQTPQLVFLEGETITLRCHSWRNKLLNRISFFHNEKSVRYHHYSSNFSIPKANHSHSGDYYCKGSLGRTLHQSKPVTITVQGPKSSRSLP

FcγRI [4] = target: T5, FcγRI (human, UniProt P12314); experiment: no assay stated; drawn summary table of graded binding (- to ++++), for which the text cites Weitzenfeld et al. 2019
T5 construct: also called human FcγRI; hFcγRI

FcγRIIb [5] = target: T6, FcγRIIb (human, UniProt P31994); experiment: as above
T6 construct: also called human FcγRIIb; hFcγRIIB
T6 sequence (receptor, looked up): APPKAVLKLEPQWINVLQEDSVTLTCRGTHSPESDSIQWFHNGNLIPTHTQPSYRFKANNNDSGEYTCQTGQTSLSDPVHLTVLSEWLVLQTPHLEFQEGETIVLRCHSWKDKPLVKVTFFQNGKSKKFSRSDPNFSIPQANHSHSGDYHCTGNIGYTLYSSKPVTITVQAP

[6] = target: T7, recombinant human SIRPα-hFc (SinoBiological 11612-H02H1) (human, UniProt P78324 31-370); experiment: flow cytometry: recombinant hSIRPα incubated with RBCs of WT mice
T7 construct: Bought fusion protein; also called hSIRPα; recombinant hSIRPα; not shown: human Fc (hFc)

FcγRIV = target: T8, FcγRIV; experiment: no assay stated; drawn summary table of graded binding (- to ++++), for which the text cites Nimmerjahn et al. 2005
T8 construct: also called mouse FcγRIV; mFcγRIV
T8 chain: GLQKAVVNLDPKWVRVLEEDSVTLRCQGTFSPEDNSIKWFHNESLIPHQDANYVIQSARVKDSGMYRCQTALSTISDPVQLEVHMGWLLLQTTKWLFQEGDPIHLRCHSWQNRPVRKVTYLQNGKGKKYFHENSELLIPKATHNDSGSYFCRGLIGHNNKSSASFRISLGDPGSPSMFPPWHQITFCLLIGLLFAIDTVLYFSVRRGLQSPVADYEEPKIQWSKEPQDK

T7 sequence (P78324 31-370 limits assumed): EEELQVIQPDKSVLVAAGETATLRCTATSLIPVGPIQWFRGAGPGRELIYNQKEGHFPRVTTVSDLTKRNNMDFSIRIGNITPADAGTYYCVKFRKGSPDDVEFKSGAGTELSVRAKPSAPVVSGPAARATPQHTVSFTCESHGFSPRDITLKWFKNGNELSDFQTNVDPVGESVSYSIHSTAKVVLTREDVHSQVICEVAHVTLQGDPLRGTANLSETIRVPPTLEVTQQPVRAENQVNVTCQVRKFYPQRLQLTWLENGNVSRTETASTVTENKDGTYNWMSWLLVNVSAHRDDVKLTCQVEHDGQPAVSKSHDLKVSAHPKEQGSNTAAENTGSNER
T5 sequence (P12314 16-288 limits assumed): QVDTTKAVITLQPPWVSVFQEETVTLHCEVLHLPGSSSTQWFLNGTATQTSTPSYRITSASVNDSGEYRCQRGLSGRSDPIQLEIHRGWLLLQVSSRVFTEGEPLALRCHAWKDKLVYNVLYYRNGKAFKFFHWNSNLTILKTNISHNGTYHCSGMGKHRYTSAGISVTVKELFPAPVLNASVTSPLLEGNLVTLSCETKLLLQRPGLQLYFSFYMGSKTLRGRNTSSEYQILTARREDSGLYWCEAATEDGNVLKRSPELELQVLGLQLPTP

B1: MIAP301-mIgG1-D265A (antibody)
heavy: QVKLLQSGAALVKPGASVKMSCQASGYSFTDYWVTWVKQSHGQSLEWIGEIYPSNTVTNFNDNFKGKATLTVDKSTSTAYMELSRLTSEDSAIYYCTRLGNSGYRVGWFLYWGQGTLVTVISASTKGPSVYPLAPGSAAQTNSMVTLGCLVKGYFPEPVTVTWNSGSLSSGVHTFPAVLQSDLYTLSSSVTVPSSTWPSQTVTCNVAHPASSTKVDKKIVPRDCGCKPCICTVPEVSSVFIFPPKPKDVLTITLTPKVTCVVVAISKDDPEVQFSWFVDDVEVHTAQTKPREEQINSTFRSVSELPIMHQDWLNGKEFKCRVNSAAFPAPIEKTISKTKGRPKAPQVYTIPPPKEQMAKDKVSLTCMITNFFPEDITVEWQWNGQPAENYKNTQPIMDTDGSYFVYSKLNVQKSNWEAGNTFTCSVLHEGLHNHHTEKSLSHSPGK
VL: SDTVLTQSPALAVSPGERVTISCKASESVSSHMHWYQQKPGQQPKLLIYKASNLASGVPARFSGSGSGTDFTLTIDPVEADDTATYFCQQGWNGPFTFGAGTRLELKRAVD
notes: Heavy chain assembled from the VH entry and the constant region entry named for the Fc format; also called mIgG1-D265A Fc variant of MIAP301
binding result [1]: binds

B2: IgG2a (antibody)
heavy chain constant region: TTAPSVYPLAPVCGGTTGSSVTLGCLVKGYFPEPVTLTWNSGSLSSGVHTFPALLQSGLYTLSSSVTVTSNTWPSQTITCNVAHPASSTKVDKKIEPRVPITQNPCPPLKECPPCAAPDLLGGPSVFIFPPKIKDVLMISLSPMVTCVVVDVSEDDPDVQISWFVNNVEVHTAQTQTHREDYNSTLRVVSALPIQHQDWMSGKEFKCKVNNRALPSPIEKTISKPRGPVRAPQVYVLPPPAEEMTKKEFSLTCMITGFLPAEIAVDWTSNGRTEQNYKNTATVLDSDGSYFMYSKLRVQKSTWERGSLFACSVVHEGLHNHLTTKTISRSLGK
notes: The variable region is not specified there; also called mIgG2a; mouse IgG2a subclass (Fc format)
binding result (FcγRI [2]): binds
binding result (FcγRIII): binds
binding result (FcγRIIb [3]): binds

B3: MIAP301-mIgG1 (antibody)
heavy: QVKLLQSGAALVKPGASVKMSCQASGYSFTDYWVTWVKQSHGQSLEWIGEIYPSNTVTNFNDNFKGKATLTVDKSTSTAYMELSRLTSEDSAIYYCTRLGNSGYRVGWFLYWGQGTLVTVISAS
VL: B1 VL
notes: also called mIgG1 Fc variant of MIAP301; not shown: mouse IgG1 heavy chain constant region, wild type
binding result [1]: binds

B4: 5F9-GAALIE (antibody, human IgG1)
heavy chain: QVQLVQSGAEVKKPGASVKVSCKASGYTFTNYNMHWVRQAPGQRLEWMGTIYPGNDDTSYNQKFKDRVTITADTSASTAYMELSSLRSEDTAVYYCARGGYRAMDYWGQGTLVTVSSASTKGPSVFPLAPSSKSTSGGTAALGCLVKDYFPEPVTVSWNSGALTSGVHTFPAVLQSSGLYSLSSVVTVPSSSLGTQTYICNVNHKPSNTKVDKRVEPKSCDKTHTCPPCPAPELLAGPSVFLFPPKPKDTLMISRTPEVTCVVVDVSHEDPEVKFNWYVDGVEVHNAKTKPREEQYNSTYRVVSVLTVLHQDWLNGKEYKCKVSNKALPLPEEKTISKAKGQPREPQVYTLPPSREEMTKNQVSLTCLVKGFYPSDIAVEWESNGQPENNYKTTPPVLDSDGSFFLYSKLTVDKSRWQQGNVFSCSVMHEALHNHYTQKSLSLSPGK
light chain: DIVMTQSPLSLPVTPGEPASISCRSSQSIVYSNGNTYLGWYLQKPGQSPQLLIYKVSNRFSGVPDRFSGSGSGTDFTLKISRVEAEDVGVYYCFQGSHVPYTFGQGTKLEIKVDAPSVFIFPPSDEQLKSGTASVVCLLNNFYPREAKVQWKVDNALQSGNSQESVTEQDSKDSTYSLSSTLTLSKADYEKHKVYACEVTHQGLSSPVTKSFNRGEC
notes: also called 5F9-hIgG1-GAALIE; GAALIE 5F9 ab
binding result (FcγRI [4]): binds
binding result (FcγRIIb [5]): binds

B5: MIAP301-mIgG2a (antibody)
heavy: QVKLLQSGAALVKPGASVKMSCQASGYSFTDYWVTWVKQSHGQSLEWIGEIYPSNTVTNFNDNFKGKATLTVDKSTSTAYMELSRLTSEDSAIYYCTRLGNSGYRVGWFLYWGQGTLVTVISASTTAPSVYPLAPVCGGTTGSSVTLGCLVKGYFPEPVTLTWNSGSLSSGVHTFPALLQSGLYTLSSSVTVTSNTWPSQTITCNVAHPASSTKVDKKIEPRVPITQNPCPPLKECPPCAAPDLLGGPSVFIFPPKIKDVLMISLSPMVTCVVVDVSEDDPDVQISWFVNNVEVHTAQTQTHREDYNSTLRVVSALPIQHQDWMSGKEFKCKVNNRALPSPIEKTISKPRGPVRAPQVYVLPPPAEEMTKKEFSLTCMITGFLPAEIAVDWTSNGRTEQNYKNTATVLDSDGSYFMYSKLRVQKSTWERGSLFACSVVHEGLHNHLTTKTISRSLGK
VL: B1 VL
notes: Heavy chain assembled from the VH entry and the constant region entry named for the Fc format; also called mIgG2a Fc variant of MIAP301; anti-mCD47 ab clone MIAP301 (mIgG2a Fc)
binding result [1]: binds

B6: mouse CD47 on RBCs of WT (C57BL/6J) mice (receptor, UniProt Q61735 19-303, looked up)
chain: QLLFSNVNSIEFTSCNETVVIPCIVRNVEAQSTEEMFVKWKLNKSYIFIYDGNKNSTTTDQNFTSAKISVSDLINGIASLKMDKRDAMVGNYTCEVTELSREGKTVIELKNRTVSWFSPNEKILIVIFPILAILLFWGKFGILTLKYKSSHTNKRIILLLVAGLVLTVIVVVGAILLIPGEKPVKNASGLGLIVISTGILILLQYNVFMTAFGMTSFTIAILITQVLGYVLALVGLCLCIMACEPVHGPLLISGLGIIALAELLGLVYMKFVASNQRTIQPPRNR
notes: whole, on cells; The legend names the cells (RBCs from WT mice); also called mCD47 on WT RBCs
binding result [6]: no binding

B7: IgG1 D265A (antibody)
heavy chain constant region: TKGPSVYPLAPGSAAQTNSMVTLGCLVKGYFPEPVTVTWNSGSLSSGVHTFPAVLQSDLYTLSSSVTVPSSTWPSQTVTCNVAHPASSTKVDKKIVPRDCGCKPCICTVPEVSSVFIFPPKPKDVLTITLTPKVTCVVVAISKDDPEVQFSWFVDDVEVHTAQTKPREEQINSTFRSVSELPIMHQDWLNGKEFKCRVNSAAFPAPIEKTISKTKGRPKAPQVYTIPPPKEQMAKDKVSLTCMITNFFPEDITVEWQWNGQPAENYKNTQPIMDTDGSYFVYSKLNVQKSNWEAGNTFTCSVLHEGLHNHHTEKSLSHSPGK
notes: also called mIgG1-D265A; mouse IgG1 D265A (Fc format)
binding result (FcγRI [2]): no binding
binding result (FcγRIII): no binding
binding result (FcγRIV): no binding
binding result (FcγRIIb [3]): no binding
